Results from the supplement of paper PMC10567573.

B1: TNXB (parent)
chain: LLQRELMVPGTRHSAVLRDLRSGT
B2: RHOBTB2 (parent)
chain: NQEITKAFHVRRTNRVKECLAKGT

Variants of: B1
Assay: protein stability index of a GFP-peptide fusion (GPS, HEK-293T) (PSI 1-6); higher = more stable
Settings: c terminus: a fixed tail appended
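Note: lentivirally expressed fusions sorted by FACS into six bins by GFP to DsRed ratio, PSI derived from sequencing read proportions per bin multiplied by bin number.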

Variant	protein stability index
LLQRELMVPGTRHSAVLRDLRSGF [T24F]	2.13
LLQRELMVPGTRHSAVLRDLRSGN [T24N]	2.37
LLQRELMVPGTRHSAVLRDLRSGG [T24G]	3.51
LLQRELMVPGTRHSAVLRDLRSGK [T24K]	2.03
LLQRELMVPGTRHSAVLRDLRSGS [T24S]	2.2
LLQRELMVPGTRHSAVLRDLRSGR [T24R]	2.88
LLQRELMVPGTRHSAVLRDLRSGV [T24V]	2.29
LLQRELMVPGTRHSAVLRDLRSGH [T24H]	2.13
LLQRELMVPGTRHSAVLRDLRSGW [T24W]	1.84
LLQRELMVPGTRHSAVLRDLRSGE [T24E]	1.83
LLQRELMVPGTRHSAVLRDLRMGT [S22M]	2.19
LLQRELMVPGTRHSAVLRDLRFGT [S22F]	1.58
LLQRELMVPGTRHSAVLRDLRIGT [S22I]	2.5
LLQRELMVPGTRHSAVLRDLRLGT [S22L]	2.04
LLQRELMVPGTRHSAVLRDLRGGT [S22G]	2.12
LLQRELMVPGTRHSAVLRDLRCGT [S22C]	2
LLQRELMVPGTRHSAVLRDLREGT [S22E]	2.41
LLQRELMVPGTRHSAVLRDLRQGT [S22Q]	3.04
LLQRELMVPGTRHSAVLRDLRYGT [S22Y]	2.18
LLQRELMVPGTRHSAVLRDLRNGT [S22N]	2.09
LLQRELMVPGTRHSAVLRDLRDGT [S22D]	2.96
LLQRELMVPGTRHSAVLRDLRHGT [S22H]	2.2
LLQRELMVPGTRHSAVLRDLRPGT [S22P]	2.43
LLQRELMVPGTRHSAVLRDLRAGT [S22A]	2.32
LLQRELMVPGTRHSAVLRDLRRGT [S22R]	2.78
LLQRELMVPGTRHSAVLRDLRVGT [S22V]	1.82
LLQRELMVPGTRHSAVLRDLRTGT [S22T]	2.39
LLQRELMVPGTRHSAVLRDLRWGT [S22W]	1.71
LLQRELMVPGTRHSAVLRDLRKGT [S22K]	2.77

Variants of: B2
Assay: as above
Settings: c terminus: a fixed tail appended

Variant	protein stability index
NQEIIKAFHVRRTNRVKECLAKGT [T5I]	4.04
NQEITKAFHRRRTNRVKECLAKGT [V10R]	3.91
NQEITKAFHYRRTNRVKECLAKGT [V10Y]	3.78
NQEITKAFHLRRTNRVKECLAKGT [V10L]	3.08
NQEITKAFHPRRTNRVKECLAKGT [V10P]	4.01
NQEITKAFHTRRTNRVKECLAKGT [V10T]	4.3
TQEITKAFHVRRTNRVKECLAKGT [N1T]	1.57
SQEITKAFHVRRTNRVKECLAKGT [N1S]	3.94
HQEITKAFHVRRTNRVKECLAKGT [N1H]	2.86
NCEITKAFHVRRTNRVKECLAKGT [Q2C]	3.16
NQEITKAFHVRRTNRVQECLAKGT [K17Q]	2.55
NQEITKAFHVRRTNRVTECLAKGT [K17T]	3.15
NQEITKAFHVRRTNRVRECLAKGT [K17R]	2.47
NQEITKAFHVNRTNRVKECLAKGT [R11N]	4.05
NQEITKAFHVSRTNRVKECLAKGT [R11S]	3.99
NQEITKAFHVKRTNRVKECLAKGT [R11K]	3.62
NQEITKAFHVRRTNYVKECLAKGT [R15Y]	2.86
NQEITKAFHVRRTNNVKECLAKGT [R15N]	3.48
NQEITKAFHVRRTNFVKECLAKGT [R15F]	2.84
NQEFTKAFHVRRTNRVKECLAKGT [I4F]	3.46
NQEETKAFHVRRTNRVKECLAKGT [I4E]	4.32
NQEATKAFHVRRTNRVKECLAKGT [I4A]	4.92

Variant	protein stability index
NQEITKAFHVRRTNRVKECSAKGT [L20S]	4.04
NQEITKAFHVRRTNRVKECDAKGT [L20D]	3.98
NQEITKAFHVRRTNRVKECHAKGT [L20H]	2.84
NQEITKAFHVRRMNRVKECLAKGT [T13M]	3.57
NQEITKAFHVRRTNRVKECLADGT [K22D]	3.64
NQEITKAFHVRRTNRVKERLAKGT [C19R]	2.9
NQEITLAFHVRRTNRVKECLAKGT [K6L]	2.84
NQEITTAFHVRRTNRVKECLAKGT [K6T]	3.43
NQEITNAFHVRRTNRVKECLAKGT [K6N]	3.25
NQEITWAFHVRRTNRVKECLAKGT [K6W]	2.34
NQEITSAFHVRRTNRVKECLAKGT [K6S]	2.77
NQEITYAFHVRRTNRVKECLAKGT [K6Y]	2.25
NQEITDAFHVRRTNRVKECLAKGT [K6D]	4
NQEITVAFHVRRTNRVKECLAKGT [K6V]	2.1
NQEITFAFHVRRTNRVKECLAKGT [K6F]	2.97
NQEITIAFHVRRTNRVKECLAKGT [K6I]	1.51
NQEITKAFHVRRTNRVKFCLAKGT [E18F]	2.59
NQEITKAFHVRRTNRVKKCLAKGT [E18K]	3.08
NQEITKAFHVRRTNRVKLCLAKGT [E18L]	2.83
NQEITKAFHVRRTNRVKPCLAKGT [E18P]	2.59
NQEITKAFHVRRTNRVKECLAKGR [T24R]	2.7
NQEITKAFHVRRTNRVKECLAKGF [T24F]	1.81

Variant	protein stability index
NQEITKAFHVRRTSRVKECLAKGT [N14S]	2.48
NQEITKAFHVRRTFRVKECLAKGT [N14F]	2.15
NQEITKAFEVRRTNRVKECLAKGT [H9E]	4.58
NQEITKAFNVRRTNRVKECLAKGT [H9N]	4.24
NQEITKAFLVRRTNRVKECLAKGT [H9L]	2.77
NQEITKAFIVRRTNRVKECLAKGT [H9I]	3.08
NQEITKAFHVRRTNRVKECLAKWT [G23W]	2.61
NQEITKAFHVRRTNRVKECLAKLT [G23L]	2.56
NQEITKAFHVRRTNRVKECLAKIT [G23I]	2.61
NQEITKAFHVRRTNRVKECLAKET [G23E]	3.64
NQFITKAFHVRRTNRVKECLAKGT [E3F]	2.04
NQMITKAFHVRRTNRVKECLAKGT [E3M]	2.87
NQEITKAFHVRRTNRTKECLAKGT [V16T]	3.02
NQEITKADHVRRTNRVKECLAKGT [F8D]	4.67
NQEITKAKHVRRTNRVKECLAKGT [F8K]	4.15
NQEITKAYHVRRTNRVKECLAKGT [F8Y]	3.37
NQEITKAFHVRRTNRVKECLEKGT [A21E]	3.63
NQEITKAFHVRRTNRVKECLWKGT [A21W]	2.28
NQEITKAFHVRRTNRVKECLHKGT [A21H]	2.35
NQEITKAFHVRRTNRVKECLCKGT [A21C]	1.94
NQEITKAFHVRRTNRVKECLFKGT [A21F]	2.85
